# Experimental data from patent publication US10280205B2, “Method for treating cancer with an activated T lymphocyte that selectively recognizes a cancer cell consisting of specific peptide” (immatics biotechnologies GmbH, priority 2015, dated 2019).
# Biological target: HLA-A*02:01 (Homo sapiens, UniProt P04439, D140Y/D185E/D98H/E176V/E277Q/G131W/G231S/I119V/I121R/I166T/I218V/L300P/L318F/N151K/N90K/P208A/P217A/Q86G/Q94H/R138H/R169H/T345S)
# Assay: MHC binding assay: UV-ligand exchange with beta2m ELISA (exchange yield)
# Conditions: binding to HLA-A*02:01, β2m ELISA
# Summary of the method: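 Exchange yield reflects how much β2m remains bound, measured by ELISA: streptavidin capture of 100-fold diluted monomers, HRP anti-β2m at 37° C. for 1 h, TMB read at 450 nm. Monomers come from UV cleavage of a conditional HLA-A*02:01 ligand in the presence of the candidate peptide.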
row,Substance,"Peptide exchange (MHC class I binding score, peptide exchange yield)"
1,373 (SLLEDKGLAEV; listed as Homo sapiens) [compound 373],“++” (≥20% = ++)
2,351 (SLIPNLRNV; listed as Homo sapiens) [compound 351],“+++” (≥50 = +++)
3,80 (FLYDNLVESL; listed as Homo sapiens) [compound 80],“++” (≥20% = ++)
4,42 (VLLQKIVSA; listed as Homo sapiens) [compound 42],“+++” (≥50 = +++)
5,402 (VLFSGALLGL; listed as Homo sapiens) [compound 402],“++” (≥20% = ++)
6,138 (YQYPRAILSV; listed as Homo sapiens) [compound 138],“+++” (≥50 = +++)
7,221 (ALYEEGLLL; listed as Homo sapiens) [compound 221],“++” (≥20% = ++)
8,272 (ALGNTVPAV; listed as Homo sapiens) [compound 272],“+++” (≥50 = +++)
9,308 (SQYSGQLHEV; listed as Homo sapiens) [compound 308],“+++” (≥50 = +++)
10,230 (ILVDWLVEV; listed as Homo sapiens) [compound 230],“+” (≥10% = +)
11,332 (YLISELEAA; listed as Homo sapiens) [compound 332],“+++” (≥50 = +++)
12,343 (SLLEVNEESTV; listed as Homo sapiens) [compound 343],“+++” (≥50 = +++)
13,253 (GLDAATATV; listed as Homo sapiens) [compound 253],“++” (≥20% = ++)
14,18 (YLVAKLVEV; listed as Homo sapiens) [compound 18],“++” (≥20% = ++)
15,158 (KLFDVDEDGYI; listed as Homo sapiens) [compound 158],“+++” (≥50 = +++)
16,116 (YHIDEEVGF; listed as Homo sapiens) [compound 116],“+” (≥10% = +)

row,Substance,"Peptide exchange (MHC class I binding score, peptide exchange yield)"
1,67 (TLLAEALVTV; listed as Homo sapiens) [compound 67],“+++” (≥50 = +++)
2,27 (ILADIVISA; listed as Homo sapiens) [compound 27],“+++” (≥50 = +++)
3,220 (LLQKFVPEI; listed as Homo sapiens) [compound 220],“++” (≥20% = ++)
4,148 (ALNPEIVSV; listed as Homo sapiens) [compound 148],“++” (≥20% = ++)
5,128 (YLFDDPLSAV; listed as Homo sapiens) [compound 128],“++” (≥20% = ++)
6,333 (FLPDANSSV; listed as Homo sapiens) [compound 333],“++” (≥20% = ++)
7,267 (ALQDFLLSV; listed as Homo sapiens) [compound 267],“+++” (≥50 = +++)
8,234 (ALMEDTGRQML; listed as Homo sapiens) [compound 234],“++” (≥20% = ++)
9,40 (TLLVKVFSV; listed as Homo sapiens) [compound 40],“+++” (≥50 = +++)
10,387 (ALFQATAEV; listed as Homo sapiens) [compound 387],“++++” (≥75% = ++++)
11,6 (VLVSDGVHSV; listed as Homo sapiens) [compound 6],“+++” (≥50 = +++)
12,206 (VLQEGKLQKLAQL; listed as Homo sapiens) [compound 206],“+++” (≥50 = +++)
13,135 (ALSEVDFQL; listed as Homo sapiens) [compound 135],“+++” (≥50 = +++)
14,407 (YLMDLINFL; listed as Homo sapiens) [compound 407],“+++” (≥50 = +++)
15,400 (SLLTEQDLWTV; listed as Homo sapiens) [compound 400],“++” (≥20% = ++)

# Next, values leading:
row,"Peptide exchange (MHC class I binding score, peptide exchange yield)",Substance
1,“+++” (≥50 = +++),578 (FLDPGGPMMKL; listed as Homo sapiens) [compound 578]
2,“++” (≥20% = ++),579 (NLMEMVAQL; listed as Homo sapiens) [compound 579]
3,“+++” (≥50 = +++),487 (LLINSVFHV; listed as Homo sapiens) [compound 487]
4,“+++” (≥50 = +++),471 (YLYNNMIAKI; listed as Homo sapiens) [compound 471]
5,“++” (≥20% = ++),548 (ALWENPESGEL; listed as Homo sapiens) [compound 548]
6,“++++” (≥75% = ++++),568 (TLYDIAHTPGV; listed as Homo sapiens) [compound 568]
7,“+++” (≥50 = +++),551 (KLYESLLPFA; listed as Homo sapiens) [compound 551]
8,“++++” (≥75% = ++++),611 (YLLDDGTLVV; listed as Homo sapiens) [compound 611]
9,“+++” (≥50 = +++),476 (ALMERTGYSMV; listed as Homo sapiens) [compound 476]
10,“+++” (≥50 = +++),588 (SLLPLSHLV; listed as Homo sapiens) [compound 588]
11,“+++” (≥50 = +++),439 (YLLQEIYGI; listed as Homo sapiens) [compound 439]
12,“+++” (≥50 = +++),543 (GLLPTPITQQASL; listed as Homo sapiens) [compound 543]
13,“+++” (≥50 = +++),475 (LLLNEEALAQI; listed as Homo sapiens) [compound 475]
14,“++” (≥20% = ++),538 (LLLAHIIAL; listed as Homo sapiens) [compound 538]
15,“+++” (≥50 = +++),481 (GLIEDYEALL; listed as Homo sapiens) [compound 481]
16,“++” (≥20% = ++),559 (VTVPPGPSL; listed as Homo sapiens) [compound 559]
17,“+++” (≥50 = +++),567 (SLLPLDDIVRV; listed as Homo sapiens) [compound 567]
18,“+++” (≥50 = +++),444 (GLLRDEALAEV; listed as Homo sapiens) [compound 444]
19,“+++” (≥50 = +++),622 (RLLGEEVVRVLQA; listed as Homo sapiens) [compound 622]
